# Measurements reported in US20140228277A1 (Genentech, published 2014).
# Positions of bridges follow the written chain, without caps; N, C: chain ends. Non-standard residues stand in square brackets, D forms with d. No end group written: not given here. Cit = NC(=O)NCCC[C@H](N)C(=O)O; Orn = NCCC[C@H](N)C(=O)O
# B1: phage-displayed peptide BACE018 (SEQ ID NO 14) (peptide)
# chain: KEESIYCRLMGLGCG
# notes: not shown: M13 major coat protein; peptide fused to its N-terminus
# B2: phage-displayed peptide BACE019 (SEQ ID NO 15) (peptide)
# chain: NELSPYCRLMGLGCD
# notes: as for B1
# B3: phage-displayed peptide BACE020 (SEQ ID NO 16) (peptide)
# chain: NEESMYCRLLGIGCG
# modifications: disulfide 7-14; also: displayed on M13 phage as N-terminal fusion to the coat protein
# notes: as for B1
# B4: phage-displayed peptide BACE021 (SEQ ID NO 17) (peptide)
# chain: PEESLYCRLLALGCG
# notes: as for B1
# B5: BACE046 (peptide)
# peptide: Ac-NEESAYCRLLGIGCG-NH2
# modifications: disulfide 7-14 (inferred)
# notes: also called BACE020 Met5 to Ala
# B6: BACE047 (peptide)
# peptide: Ac-NEESMACRLLGIGCG-NH2
# modifications: disulfide 7-14 (inferred)
# notes: also called BACE020 Tyr6 to Ala
# B7: BACE048 (peptide)
# peptide: Ac-NEESMYCALLGIGCG-NH2
# modifications: disulfide 7-14 (inferred)
# notes: also called BACE020 Arg8 to Ala mutant
# B8: BACE049 (peptide)
# peptide: Ac-NEESMYCRALGIGCG-NH2
# modifications: disulfide 7-14 (inferred)
# notes: also called BACE020 Leu9 to Ala
# B9: BACE050 (peptide)
# peptide: Ac-NEESMYCRLAGIGCG-NH2
# modifications: disulfide 7-14 (inferred)
# notes: also called BACE020 Leu10 to Ala
# B10: BACE051 (peptide)
# peptide: Ac-NEESMYCRLLAIGCG-NH2
# modifications: disulfide 7-14 (inferred)
# notes: also called BACE020 Gly11 to Ala
# B11: BACE052 (peptide)
# peptide: Ac-NEESMYCRLLGAGCG-NH2
# modifications: disulfide 7-14 (inferred)
# notes: also called BACE020 Ile12 to Ala
# B12: BACE053 (peptide)
# peptide: Ac-NEESMYCRLLGIACG-NH2
# modifications: disulfide 7-14 (inferred)
# notes: also called BACE020 Gly13 to Ala
# B13: BACE054 (peptide)
# peptide: Ac-NEESMYCRLLGIGCA-NH2
# modifications: disulfide 7-14 (inferred)
# notes: also called BACE020 Gly15 to Ala
# B14: BACE055 (peptide)
# peptide: Ac-NEESMFCRLLGIGCG-NH2
# modifications: disulfide 7-14 (inferred)
# notes: also called BACE020 Tyr6 to Phe
# B15: BACE056 (peptide)
# peptide: Ac-NEEHMYCRLLGIGCG-NH2
# modifications: disulfide 7-14 (inferred)
# notes: also called BACE020 Ser4 to His
# B16: BMS2 (peptide)
# peptide: Ac-ALYPYFLPISAK-NH2
# notes: also called Peptide 2 of Kornacker et al
# B17: BMS4 (peptide)
# peptide: Ac-YPYFIPL-NH2
# notes: also called Peptide 4 of Kornacker et al
# B18: BACE059 (peptide)
# peptide: Ac-ESMYC[Orn]LLGIGCG-NH2
# modifications: disulfide 5-12 (inferred)
# notes: also called BACE030 with Arg to ornithine
# B19: BACE060 (peptide)
# peptide: Ac-ESMYC[Cit]LLGIGCG-NH2
# modifications: disulfide 5-12 (inferred)
# notes: also called BACE030 with Arg to citrulline
# B20: BACE018 (peptide)
# peptide: Ac-KEESIYCRLMGLGCG-NH2
# modifications: disulfide 7-14 (inferred)
# notes: also called BACE-18
# B21: BACE010 (Ac-SGPYFIEYMSAV-NH2) (peptide)
# peptide: Ac-SGPYFIEYMSAV-NH2
# notes: also called BACE10
# B22: BACE019 (peptide)
# peptide: Ac-NELSPYCRLMGLGCD-NH2
# modifications: disulfide 7-14 (inferred)
# notes: also called BACE-19
# B23: BACE020 (peptide)
# peptide: Ac-NEESMYCRLLGIGCG-NH2
# modifications: disulfide 7-14
# SMILES: CC[C@H](C)[C@@H]1NC(=O)CNC(=O)[C@H](CC(C)C)NC(=O)[C@H](CC(C)C)NC(=O)[C@H](CCCNC(=N)N)NC(=O)[C@@H](NC(=O)[C@H](Cc2ccc(O)cc2)NC(=O)[C@H](CCSC)NC(=O)[C@H](CO)NC(=O)[C@H](CCC(=O)O)NC(=O)[C@H](CCC(=O)O)NC(=O)[C@H](CC(N)=O)NC(C)=O)CSSC[C@@H](C(=O)NCC(N)=O)NC(=O)CNC1=O
# notes: also called BACE20; BACE-20
# B24: BACE021 (peptide)
# peptide: Ac-PEESLYCRLLALGCG-NH2
# modifications: disulfide 7-14 (inferred)
# notes: also called BACE-21
# Target: T1, recombinant human BACE1 (rhBACE1) (human, UniProt P56817 22-457, limits assumed)
# T1 sequence (P56817 22-457 limits assumed): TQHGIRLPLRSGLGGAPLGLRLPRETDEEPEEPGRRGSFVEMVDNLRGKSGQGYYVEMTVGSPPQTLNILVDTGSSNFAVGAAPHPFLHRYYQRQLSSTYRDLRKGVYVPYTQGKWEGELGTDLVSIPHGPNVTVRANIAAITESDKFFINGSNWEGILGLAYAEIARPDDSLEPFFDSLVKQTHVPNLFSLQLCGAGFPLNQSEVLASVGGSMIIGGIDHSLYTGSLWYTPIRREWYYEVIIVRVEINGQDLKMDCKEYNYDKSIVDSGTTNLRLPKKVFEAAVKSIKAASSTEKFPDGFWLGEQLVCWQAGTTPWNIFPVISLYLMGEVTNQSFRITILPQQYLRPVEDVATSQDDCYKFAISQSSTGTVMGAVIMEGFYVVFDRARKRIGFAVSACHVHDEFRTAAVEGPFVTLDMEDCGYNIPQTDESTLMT
# Assay: spot phage ELISA, plate-immobilized BACE1 against BSA
row,Binder,fold improvement of signal/noise ratio over parent BACE017
1,B1,> 5 fold
2,B2,> 5 fold
3,B3,> 5 fold
4,B4,> 5 fold

# Target: T1, recombinant human BACE1 (rhBACE1)
# Assay: spot phage ELISA, signal on BACE1 over signal on BSA
# Description: After 4 rounds of binding selection, individual phage clones were analyzed in a high-throughput spot phage ELISA (Sidhu, S. S. et al. (2000) Methods Enzymol 328: 333-63) using plate-immobilized BACE1 as the target. The binding signal of the same phage particle to BSA was detected as non-specific binding noise. Clones with phage binding signal to target over 0.5 and signal/noise ratio>3 were considered to be positive clones and were subjected to DNA sequence analysis.
row,Binder,signal/noise ratio
1,B1,> 20
2,B2,> 20
3,B3,> 20
4,B4,> 20

# Target: T1, recombinant human BACE1 (rhBACE1)
# Assay: cell-based or functional assay
Binder,Caliper (MCE) BACE1 activity assay IC50,"Caliper (MCE) BACE1 activity assay, EC50 (rate increased)",HTRF BACE1 activity assay IC50
B5,435 nM,–,–
B6,93 nM,–,–
B7,> 10000 nM,–,–
B8,1380 nM,–,–
B9,49 nM,–,–
B10,18 nM,–,–
B11,14 nM,–,–
B12,7 nM,–,–
B13,7 nM,–,–
B14,11 nM,–,–
B15,3580 nM,–,–
B16,–,26400 nM,–
B17,–,1760 nM,–
B18,222 nM,–,–
B19,772 nM,–,–
B20,54 nM,–,77 nM
B21,–,2200 nM,–
B22,15 nM,–,10 nM
B23,11 nM,–,12 nM
B24,17 nM,–,22 nM

# Target: T1, recombinant human BACE1 (rhBACE1)
# Assay: FP competition binding; 12 nM rhBACE1, competitor probe 5-TAMRA-BACE020
# Description: BACE1 binding assays were carried out in a final volume of 10 μL per well in black 384-well microplates (Proxiplate-Plus; Perkin Elmer, Waltham, Mass.). […] The reaction was permitted to proceed towards equilibrium for 2 h at ambient temperature prior to fluorescence polarization measurement using Envision (Perkin Elmer). The parallel and perpendicular fluorescent emissions measured in each well at 595 nm (excitation 531 nm polarized light) were used to determine the milli-polarization level (mP) using the following formula: mP=1000*(S−G*P)/(S+G*P) where S=parallel emission, P=perpendicular emission and G=0.65.
# The affinities of BACE1 peptide ligands were measured using the abovementioned competition binding FP assay for determining IC₅₀ values with serially diluted peptides. A Caliper assay was used to measure the inhibition of BACE1 enzymatic activity by peptide ligands.
row,Binder,IC50
1,B5,1570 nM
2,B6,225 nM
3,B7,> 10000 nM
4,B8,7700 nM
5,B9,186 nM
6,B10,36 nM
7,B11,39 nM
8,B12,37 nM
9,B13,12 nM
10,B14,27 nM
11,B15,4500 nM
12,B16,> 10000 nM
13,B17,> 10000 nM
14,B18,512 nM
15,B19,2300 nM
16,B20,102 nM
17,B21,> 10000 nM
18,B22,10 nM
19,B23,11 nM
20,B24,25 nM
